# Assay results as given in the MegaScale stability set (Tsuboyama et al. 2023).
# B1: HEEH_KT_rd6_0790 (parent)
# chain: SEEEEEEWRRAKERGEEIIILGILWKPNDEEAERRIKEALRRV
# Variants of: B1
# Assay: folding stability dG (cDNA display proteolysis); higher = more stable
# Conditions: PBS, room temperature
row,Variant,folding stability dG
1,SEVEEEEWRRAKERGEEIIILGILWKPNDEEAERRIKEALRRV,2.33 kcal/mol
2,SEPEEEEWRRAKERGEEIIILGILWKPNDEEAERRIKEALRRV,2.29 kcal/mol
3,SEYEEEEWRRAKERGEEIIILGILWKPNDEEAERRIKEALRRV,2.44 kcal/mol
4,SEQEEEEWRRAKERGEEIIILGILWKPNDEEAERRIKEALRRV,2.33 kcal/mol
5,SEMEEEEWRRAKERGEEIIILGILWKPNDEEAERRIKEALRRV,2.24 kcal/mol
6,SETEEEEWRRAKERGEEIIILGILWKPNDEEAERRIKEALRRV,2.36 kcal/mol
7,SENEEEEWRRAKERGEEIIILGILWKPNDEEAERRIKEALRRV,2.36 kcal/mol
8,SELEEEEWRRAKERGEEIIILGILWKPNDEEAERRIKEALRRV,2.28 kcal/mol
9,SEREEEEWRRAKERGEEIIILGILWKPNDEEAERRIKEALRRV,2.4 kcal/mol
10,SESEEEEWRRAKERGEEIIILGILWKPNDEEAERRIKEALRRV,2.49 kcal/mol
11,SEWEEEEWRRAKERGEEIIILGILWKPNDEEAERRIKEALRRV,2.5 kcal/mol
12,SEETEEEWRRAKERGEEIIILGILWKPNDEEAERRIKEALRRV,2.29 kcal/mol
13,SEEQEEEWRRAKERGEEIIILGILWKPNDEEAERRIKEALRRV,2.2 kcal/mol
14,SEEMEEEWRRAKERGEEIIILGILWKPNDEEAERRIKEALRRV,2.82 kcal/mol
15,SEEDEEEWRRAKERGEEIIILGILWKPNDEEAERRIKEALRRV,2.17 kcal/mol
16,SEELEEEWRRAKERGEEIIILGILWKPNDEEAERRIKEALRRV,3.4 kcal/mol
17,SEEWEEEWRRAKERGEEIIILGILWKPNDEEAERRIKEALRRV,3.35 kcal/mol
18,SEEYEEEWRRAKERGEEIIILGILWKPNDEEAERRIKEALRRV,2.93 kcal/mol
19,SEEPEEEWRRAKERGEEIIILGILWKPNDEEAERRIKEALRRV,2.5 kcal/mol
20,SEEKEEEWRRAKERGEEIIILGILWKPNDEEAERRIKEALRRV,1.92 kcal/mol
21,SEEGEEEWRRAKERGEEIIILGILWKPNDEEAERRIKEALRRV,2.04 kcal/mol
22,SEEIEEEWRRAKERGEEIIILGILWKPNDEEAERRIKEALRRV,3.14 kcal/mol
23,SEENEEEWRRAKERGEEIIILGILWKPNDEEAERRIKEALRRV,1.94 kcal/mol
24,SEEVEEEWRRAKERGEEIIILGILWKPNDEEAERRIKEALRRV,2.71 kcal/mol

row,Variant,folding stability dG
1,SEEHEEEWRRAKERGEEIIILGILWKPNDEEAERRIKEALRRV,2.41 kcal/mol
2,SEEAEEEWRRAKERGEEIIILGILWKPNDEEAERRIKEALRRV,2.68 kcal/mol
3,SEEREEEWRRAKERGEEIIILGILWKPNDEEAERRIKEALRRV,2.03 kcal/mol
4,SEEFEEEWRRAKERGEEIIILGILWKPNDEEAERRIKEALRRV,2.78 kcal/mol
5,SEESEEEWRRAKERGEEIIILGILWKPNDEEAERRIKEALRRV,2.21 kcal/mol
6,SEEEEECWRRAKERGEEIIILGILWKPNDEEAERRIKEALRRV,2.59 kcal/mol
7,SEEEEEIWRRAKERGEEIIILGILWKPNDEEAERRIKEALRRV,2.36 kcal/mol
8,SEEEEEDWRRAKERGEEIIILGILWKPNDEEAERRIKEALRRV,1.99 kcal/mol
9,SEEEEEYWRRAKERGEEIIILGILWKPNDEEAERRIKEALRRV,2.19 kcal/mol
10,SEEEEEKWRRAKERGEEIIILGILWKPNDEEAERRIKEALRRV,2.9 kcal/mol
11,SEEEEEMWRRAKERGEEIIILGILWKPNDEEAERRIKEALRRV,2.62 kcal/mol
12,SEEEEELWRRAKERGEEIIILGILWKPNDEEAERRIKEALRRV,2.65 kcal/mol
13,SEEEEEAWRRAKERGEEIIILGILWKPNDEEAERRIKEALRRV,2.78 kcal/mol
14,SEEEEETWRRAKERGEEIIILGILWKPNDEEAERRIKEALRRV,2 kcal/mol
15,SEEEEEPWRRAKERGEEIIILGILWKPNDEEAERRIKEALRRV,1.32 kcal/mol
16,SEEEEEQWRRAKERGEEIIILGILWKPNDEEAERRIKEALRRV,2.44 kcal/mol
17,SEEEEENWRRAKERGEEIIILGILWKPNDEEAERRIKEALRRV,2.54 kcal/mol
18,SEEEEEVWRRAKERGEEIIILGILWKPNDEEAERRIKEALRRV,2.09 kcal/mol
19,SEEEEESWRRAKERGEEIIILGILWKPNDEEAERRIKEALRRV,2.31 kcal/mol
20,SEEEEEFWRRAKERGEEIIILGILWKPNDEEAERRIKEALRRV,2.91 kcal/mol
21,SEEEEEHWRRAKERGEEIIILGILWKPNDEEAERRIKEALRRV,2.14 kcal/mol
22,SEEEEERWRRAKERGEEIIILGILWKPNDEEAERRIKEALRRV,2.97 kcal/mol
23,SEEEEEWWRRAKERGEEIIILGILWKPNDEEAERRIKEALRRV,2.86 kcal/mol
24,SEEEEEGWRRAKERGEEIIILGILWKPNDEEAERRIKEALRRV,1.81 kcal/mol

row,Variant,folding stability dG
1,SEEEEMEWRRAKERGEEIIILGILWKPNDEEAERRIKEALRRV,1.87 kcal/mol
2,SEEEECEWRRAKERGEEIIILGILWKPNDEEAERRIKEALRRV,2.44 kcal/mol
3,SEEEEWEWRRAKERGEEIIILGILWKPNDEEAERRIKEALRRV,2.09 kcal/mol
4,SEEEESEWRRAKERGEEIIILGILWKPNDEEAERRIKEALRRV,1.63 kcal/mol
5,SEEEEGEWRRAKERGEEIIILGILWKPNDEEAERRIKEALRRV,1.46 kcal/mol
6,SEEEEREWRRAKERGEEIIILGILWKPNDEEAERRIKEALRRV,1.65 kcal/mol
7,SEEEEIEWRRAKERGEEIIILGILWKPNDEEAERRIKEALRRV,1.77 kcal/mol
8,SEEEEHEWRRAKERGEEIIILGILWKPNDEEAERRIKEALRRV,1.61 kcal/mol
9,SEEEELEWRRAKERGEEIIILGILWKPNDEEAERRIKEALRRV,1.93 kcal/mol
10,SEEEEYEWRRAKERGEEIIILGILWKPNDEEAERRIKEALRRV,2.08 kcal/mol
11,SEEEEAEWRRAKERGEEIIILGILWKPNDEEAERRIKEALRRV,1.99 kcal/mol
12,SEEEEKEWRRAKERGEEIIILGILWKPNDEEAERRIKEALRRV,1.72 kcal/mol
13,SEEEEVEWRRAKERGEEIIILGILWKPNDEEAERRIKEALRRV,1.64 kcal/mol
14,SEEEEDEWRRAKERGEEIIILGILWKPNDEEAERRIKEALRRV,2.09 kcal/mol
15,SEEEEFEWRRAKERGEEIIILGILWKPNDEEAERRIKEALRRV,1.93 kcal/mol
16,SEEEENEWRRAKERGEEIIILGILWKPNDEEAERRIKEALRRV,1.85 kcal/mol
17,SEEEEPEWRRAKERGEEIIILGILWKPNDEEAERRIKEALRRV,1.35 kcal/mol
18,SEEEETEWRRAKERGEEIIILGILWKPNDEEAERRIKEALRRV,1.58 kcal/mol
19,SEEEEQEWRRAKERGEEIIILGILWKPNDEEAERRIKEALRRV,1.72 kcal/mol
20,SEEEGEEWRRAKERGEEIIILGILWKPNDEEAERRIKEALRRV,1.41 kcal/mol
21,SEEEREEWRRAKERGEEIIILGILWKPNDEEAERRIKEALRRV,1.47 kcal/mol
22,SEEEKEEWRRAKERGEEIIILGILWKPNDEEAERRIKEALRRV,1.36 kcal/mol
23,SEEEMEEWRRAKERGEEIIILGILWKPNDEEAERRIKEALRRV,2.1 kcal/mol
24,SEEEWEEWRRAKERGEEIIILGILWKPNDEEAERRIKEALRRV,2.42 kcal/mol

row,Variant,folding stability dG
1,SEEETEEWRRAKERGEEIIILGILWKPNDEEAERRIKEALRRV,1.79 kcal/mol
2,SEEEAEEWRRAKERGEEIIILGILWKPNDEEAERRIKEALRRV,1.74 kcal/mol
3,SEEEPEEWRRAKERGEEIIILGILWKPNDEEAERRIKEALRRV,1.91 kcal/mol
4,SEEEIEEWRRAKERGEEIIILGILWKPNDEEAERRIKEALRRV,1.95 kcal/mol
5,SEEEDEEWRRAKERGEEIIILGILWKPNDEEAERRIKEALRRV,1.93 kcal/mol
6,SEEEVEEWRRAKERGEEIIILGILWKPNDEEAERRIKEALRRV,1.73 kcal/mol
7,SEEELEEWRRAKERGEEIIILGILWKPNDEEAERRIKEALRRV,2.17 kcal/mol
8,SEEEHEEWRRAKERGEEIIILGILWKPNDEEAERRIKEALRRV,1.8 kcal/mol
9,SEEENEEWRRAKERGEEIIILGILWKPNDEEAERRIKEALRRV,1.83 kcal/mol
10,SEEEQEEWRRAKERGEEIIILGILWKPNDEEAERRIKEALRRV,1.6 kcal/mol
11,SEEEFEEWRRAKERGEEIIILGILWKPNDEEAERRIKEALRRV,2.13 kcal/mol
12,SEEEYEEWRRAKERGEEIIILGILWKPNDEEAERRIKEALRRV,2.2 kcal/mol
13,SEEESEEWRRAKERGEEIIILGILWKPNDEEAERRIKEALRRV,1.73 kcal/mol
14,SEEEEEEGRRAKERGEEIIILGILWKPNDEEAERRIKEALRRV,0.818 kcal/mol
15,SEEEEEEYRRAKERGEEIIILGILWKPNDEEAERRIKEALRRV,1.72 kcal/mol
16,SEEEEEELRRAKERGEEIIILGILWKPNDEEAERRIKEALRRV,1.95 kcal/mol
17,SEEEEEEFRRAKERGEEIIILGILWKPNDEEAERRIKEALRRV,2.31 kcal/mol
18,SEEEEEEKRRAKERGEEIIILGILWKPNDEEAERRIKEALRRV,0.821 kcal/mol
19,SEEEEEEERRAKERGEEIIILGILWKPNDEEAERRIKEALRRV,0.744 kcal/mol
20,SEEEEEEARRAKERGEEIIILGILWKPNDEEAERRIKEALRRV,0.975 kcal/mol
21,SEEEEEEVRRAKERGEEIIILGILWKPNDEEAERRIKEALRRV,1.12 kcal/mol
22,SEEEEEEDRRAKERGEEIIILGILWKPNDEEAERRIKEALRRV,0.922 kcal/mol
23,SEEEEEEPRRAKERGEEIIILGILWKPNDEEAERRIKEALRRV,1 kcal/mol
24,SEEEEEESRRAKERGEEIIILGILWKPNDEEAERRIKEALRRV,0.793 kcal/mol

row,Variant,folding stability dG
1,SEEEEEEIRRAKERGEEIIILGILWKPNDEEAERRIKEALRRV,1.48 kcal/mol
2,SEEEEEEQRRAKERGEEIIILGILWKPNDEEAERRIKEALRRV,0.919 kcal/mol
3,SEEEEEEMRRAKERGEEIIILGILWKPNDEEAERRIKEALRRV,1.34 kcal/mol
4,SEEEEEETRRAKERGEEIIILGILWKPNDEEAERRIKEALRRV,0.835 kcal/mol
5,SEEEEEEHRRAKERGEEIIILGILWKPNDEEAERRIKEALRRV,0.824 kcal/mol
6,SEEEEEENRRAKERGEEIIILGILWKPNDEEAERRIKEALRRV,0.676 kcal/mol
7,SEEEEEERRRAKERGEEIIILGILWKPNDEEAERRIKEALRRV,0.881 kcal/mol
8,SEEEEEECRRAKERGEEIIILGILWKPNDEEAERRIKEALRRV,1.67 kcal/mol
9,SEEEEEEWGRAKERGEEIIILGILWKPNDEEAERRIKEALRRV,1.31 kcal/mol
10,SEEEEEEWNRAKERGEEIIILGILWKPNDEEAERRIKEALRRV,1.85 kcal/mol
11,SEEEEEEWCRAKERGEEIIILGILWKPNDEEAERRIKEALRRV,1.75 kcal/mol
12,SEEEEEEWKRAKERGEEIIILGILWKPNDEEAERRIKEALRRV,1.96 kcal/mol
13,SEEEEEEWPRAKERGEEIIILGILWKPNDEEAERRIKEALRRV,0.985 kcal/mol
14,SEEEEEEWMRAKERGEEIIILGILWKPNDEEAERRIKEALRRV,1.9 kcal/mol
15,SEEEEEEWIRAKERGEEIIILGILWKPNDEEAERRIKEALRRV,1.94 kcal/mol
16,SEEEEEEWDRAKERGEEIIILGILWKPNDEEAERRIKEALRRV,1.36 kcal/mol
17,SEEEEEEWERAKERGEEIIILGILWKPNDEEAERRIKEALRRV,1.94 kcal/mol
18,SEEEEEEWFRAKERGEEIIILGILWKPNDEEAERRIKEALRRV,1.85 kcal/mol
19,SEEEEEEWHRAKERGEEIIILGILWKPNDEEAERRIKEALRRV,1.83 kcal/mol
20,SEEEEEEWQRAKERGEEIIILGILWKPNDEEAERRIKEALRRV,1.96 kcal/mol
21,SEEEEEEWARAKERGEEIIILGILWKPNDEEAERRIKEALRRV,1.91 kcal/mol
22,SEEEEEEWLRAKERGEEIIILGILWKPNDEEAERRIKEALRRV,2.11 kcal/mol
